The source of these data is paper PMC10401710, “Cell Surface Labeling and Detection of Protein Tyrosine Kinase 7 via Covalent Aptamers”.

Series [1] addresses T1, PTK7-CFP (UniProt Q13308).
T1 sequence: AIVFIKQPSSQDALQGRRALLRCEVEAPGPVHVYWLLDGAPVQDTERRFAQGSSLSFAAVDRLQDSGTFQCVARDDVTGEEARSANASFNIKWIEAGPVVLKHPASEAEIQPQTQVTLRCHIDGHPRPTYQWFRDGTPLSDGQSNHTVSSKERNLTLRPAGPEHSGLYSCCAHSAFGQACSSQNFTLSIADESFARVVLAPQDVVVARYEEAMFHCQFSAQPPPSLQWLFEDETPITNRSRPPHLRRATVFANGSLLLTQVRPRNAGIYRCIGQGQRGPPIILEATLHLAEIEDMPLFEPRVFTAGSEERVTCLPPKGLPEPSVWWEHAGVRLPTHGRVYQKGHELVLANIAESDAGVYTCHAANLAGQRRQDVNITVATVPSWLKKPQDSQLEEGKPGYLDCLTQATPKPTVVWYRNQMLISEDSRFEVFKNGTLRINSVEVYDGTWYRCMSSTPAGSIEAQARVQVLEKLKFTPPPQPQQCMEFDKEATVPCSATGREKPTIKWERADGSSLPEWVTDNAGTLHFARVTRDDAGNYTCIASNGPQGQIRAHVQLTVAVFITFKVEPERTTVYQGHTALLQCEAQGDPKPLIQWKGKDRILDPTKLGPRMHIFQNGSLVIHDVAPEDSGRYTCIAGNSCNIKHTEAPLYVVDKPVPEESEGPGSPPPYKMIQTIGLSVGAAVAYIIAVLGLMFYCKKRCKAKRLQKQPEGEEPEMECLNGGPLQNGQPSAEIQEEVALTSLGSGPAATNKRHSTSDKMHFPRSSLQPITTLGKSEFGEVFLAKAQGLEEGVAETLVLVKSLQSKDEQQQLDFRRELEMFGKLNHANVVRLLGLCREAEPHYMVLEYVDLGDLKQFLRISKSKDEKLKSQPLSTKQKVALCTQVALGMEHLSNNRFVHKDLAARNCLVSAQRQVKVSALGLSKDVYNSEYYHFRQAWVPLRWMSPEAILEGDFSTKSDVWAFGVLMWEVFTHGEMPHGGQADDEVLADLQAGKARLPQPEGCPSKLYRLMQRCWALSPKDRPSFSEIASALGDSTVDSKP
In words: covalent biotin transfer on cells, SA-HRP blot. The note with it: EC50 of label transfer, not equilibrium Kd; transfected HEK293T, 1 h, 5 mM MgCl2; T27 replaced by 5-octadiynyl-dU, clicked to azide-tethered N-acyl sulfonamide biotin electrophile 1; DPBS with 5 mM MgCl2, 4.5 g/L glucose, pH 7.4, 37 C, 1 h (cells: plus 0.1 mg/mL yeast tRNA); read-out is proximity-driven covalent labeling, no equilibrium Kd ….

Series [2] concerns the target T2, PTK7 (recombinant, R&D Biosystems NC2081082) (UniProt Q13308 31-703).
T2 sequence: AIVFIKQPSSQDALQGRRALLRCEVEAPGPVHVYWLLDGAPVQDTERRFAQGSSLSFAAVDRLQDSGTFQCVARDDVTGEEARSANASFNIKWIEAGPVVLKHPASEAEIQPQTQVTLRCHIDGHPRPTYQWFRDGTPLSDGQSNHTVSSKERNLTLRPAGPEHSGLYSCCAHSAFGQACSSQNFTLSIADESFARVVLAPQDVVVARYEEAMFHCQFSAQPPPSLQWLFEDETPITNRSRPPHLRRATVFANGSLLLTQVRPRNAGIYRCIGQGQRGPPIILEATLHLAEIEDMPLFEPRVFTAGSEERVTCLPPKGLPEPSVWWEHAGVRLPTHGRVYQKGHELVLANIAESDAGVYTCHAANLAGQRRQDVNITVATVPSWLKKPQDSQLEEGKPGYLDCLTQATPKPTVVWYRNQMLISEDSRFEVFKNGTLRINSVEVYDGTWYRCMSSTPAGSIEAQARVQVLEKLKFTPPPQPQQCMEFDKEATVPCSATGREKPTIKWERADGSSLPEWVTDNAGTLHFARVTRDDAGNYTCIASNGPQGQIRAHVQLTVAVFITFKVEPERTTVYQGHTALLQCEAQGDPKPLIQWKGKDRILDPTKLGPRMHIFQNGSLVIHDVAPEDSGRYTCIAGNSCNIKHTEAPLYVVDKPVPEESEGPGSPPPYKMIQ
In words: covalent biotin transfer, SA-HRP blot; EC50 of label transfer, not equilibrium Kd; 100 nM PTK7, 1 h, 37 C, 5 mM MgCl2; DPBS with 5 mM MgCl2, 4.5 g/L glucose, pH 7.4, 37 C, 1 h (cells: plus 0.1 mg/mL yeast tRNA); read-out is proximity-driven covalent labeling, no equilibrium Kd measured. The following applies: protein: commercial; label: transferable biotin; stem-loop (UNIFold prediction).

“ATCTAACTGCTGCGCCGCCGGGAAAATACTGTACGGTTAGA [sgc8c(27)-1]”: the K half in series [1] is 251 nM.

B1: sgc8c(27)-1 (structured_DNA)
DNA: ATCTAACTGCTGCGCCGCCGGGAAAATACTGTACGGTTAGA
modifications: T27 replaced by 5-octadiynyl-dU, clicked to azide-tethered N-acyl sulfonamide biotin electrophile 1
Consider B1, for which the “apparent K (half saturation)” value in series [2] was 203 nM.
